Results as given in patent US20040248211A1, “ICAM-related protein” (priority 1992, published 2004).

B1: ICR-8.1: anti-ICAM-R monoclonal antibody, IgG1, domain 1, ATCC HB 11232 (antibody, V domains shown)
VH: EIQLQQTGPELVKPGASVKISCKASGYSFTDCIILWVKQSHGKGLEWIGKINPYFGTTTYNLKFKGKATLTVDKSSSTAHMQLNSLTSEDSAVYYCARKEAYPDAMDYWGQGTSVTVSS
VL: DAVMTQTPLSLPVSLGDQASISCRSSQSLVHSNGDTYLHWYLQKPGQSPQLLIYKVSNRFSGVPDRFSGSGSGTDFTLKLSRVEAEDLGVYFCSQSTHVPYTFGGGTKLEIK
B2: ICR-1.1: anti-ICAM-R monoclonal antibody, IgG2a, domain 1, ATCC HB 11053 (antibody, V domains shown)
VH: QVQLQQSGAELAKPGASVKMSCKASGYTFTVYWMHWVKQRPGQGLEWIGYINPNTDYTEYNQRFQDKATLTADKSSSTAYMQLSSLTSEDSAVYYCARWGGNSYGLDYWGQGTSVTVSS
VL: QIVLTQSPALMSASPGEKVTMTCSASSSVSYIYWYQQKPRSSPKPWIYLTSNLASGVPARFSGSGSGASYSLTISIMEAEDAATYYCQQWKSIPLTFGAGTKLELK

Legend:
Monocytes [1] = assay: MCP-1 release from monocytes; type: cell-based, human; settings: for release of MCP-1 into conditioned medium: 8 and 18 hour time points
Procedure: (§1) Monocytes were isolated by elutriation from peripheral blood of normal donors. Plastic wells were coated with ICR-1.1, 2.1, 8.1 or albumin alone (10 μg/ml). After blocking free sites, the cells were placed into the wells in medium. After 1 hour in culture, the cells that were in the ICR Mab treated wells had flattened onto the substratum. Those cells plated in wells treated with BSA plus or minus LPS were rounded and not spread. After 8 or 18 hours of incubation at 37° C., the medium was removed and assayed for IL-8 immunoreactivity. […] By 18 hours, IL-8 levels in media from ICR monoclonal antibody wells were much elevated over control levels. ICR-1.1 induced levels increased ten times, ICR-2.1 induced levels were four times and ICR-8.1 induced levels were two times over the levels seen at the 8 hour time point. Similar experiments with monocytic cell lines (U937 and HL60) to determine if ICR monoclonal antibody can induce IL-8 release were conducted. U937 cells responded to each of the ICR monoclonal antibody treated wells by releasing IL-8 into the conditioned medium. […] No detectable morphological changes were detected with the U937 or HL60 cells.
Monocytes isolated and treated as described above were tested for release of MCP-1 at 8 and 18 hour time points. […] MCP-1 release elicited by ICR-1.1 peaked at 8 hours. Release from Mab ICR-2.1 and ICR-8.1 was not detected until 18 hours when it was 4-fold greater than the peak 1.1 induction level.

U937 cells = assay: IL-8 release from U937; type: cell-based, human
Procedure: as §1, with “Plastic wells were coated with ICR-1.1, 2.1, 8.1 or albumin alone (10 μg/ml).” left out, “After 1 hour in culture, the cells that were in the ICR Mab treated wells had flattened onto the substratum.” left out, “ICR-1.1 induced levels increased ten times, ICR-2.1 induced levels were four times and ICR-8.1 induced levels were two times over the levels seen at the 8 hour time point.” left out

Monocytes [2] = assay: IL-8 release from monocytes; type: cell-based, human; settings: wells coated 10 μg/ml
Procedure: as §1, with “Plastic wells were coated with ICR-1.1, 2.1, 8.1 or albumin alone (10 μg/ml).” left out, “After 1 hour in culture, the cells that were in the ICR Mab treated wells had flattened onto the substratum.” left out, “ICR-1.1 induced levels increased ten times, ICR-2.1 induced levels were four times and ICR-8.1 induced levels were two times over the levels seen at the 8 hour time point.” left out

human PBL = assay: SEA-induced proliferation of PBL; type: cell-based; settings: for proliferation in response to SEA, plate-bound antibody: 3 days, 3H-thymidine
[3] = biological target: T1, Protein 2 (ICAM-R domains 1-2 fused to ICAM-1) (Homo sapiens, UniProt P05362+P32942, A227S/A249V/A265P/D240V/E234D/F230V/M262R/P219L/P238T/R224Q/S236Q/T242S/V220A/W237G/Y255H); assay: FACS binding to COS cell transfectants; settings: antibody 5.0 ug/ml
T1 construct: domains of ICAM-R (residues 1 to 190) fused to ICAM-1 (residues 216 to 532); ICAM-1 residues 216 to 532 (fusion partner in the same polypeptide); expressed in transfected cells; host or cells: COS cells, plasmid pcDNA1Amp.RD1-2.1D3-5
Text: (§2) FIG. 7 is a diagram of the chimeric proteins whose construction is outlined below. Protein number 1 contains the amino-terminal immunoglobulin-like domain of ICAM-R (residues 1 to 93) fused to ICAM-1 (residue 117 to 532). Protein number 2 contains the first two amino terminal immunoglobulin-like domains of ICAM-R (residues 1 to 190) fused to ICAM-1 (residues 216 to 532). Protein number 3 contains the first three immunoglobulin-like domains of ICAM-R (residues 1 to 291) fused to ICAM-1 (residues 317 to 532).
(§3) For the anti-ICAM-R monoclonal antibody binding assay, COS cells transfected with constructs encoding the ICAM-R chimeric proteins or control constructs were removed from the plates by EDTA treatment and aliquoted at 2.5×10^5 cells per well in a 96-well round bottom plate. Cells were washed 3 times with ice cold washing buffer (PBS containing 1% BSA and 0.05% sodium azide). Anti-ICAM-R monoclonal antibody was applied at 5.0 ug/ml in 50 ul final volume and incubated on ice for 30 minutes. Cells were then washed three times with cold washing buffer and incubated with the FITC labeled secondary antibody (sheep anti-mouse IgG F(ab′)2) at a 1:100 dilution on ice for 30 minutes in dark in 50 ul final volume. After the incubation, cells were washed again for three times in the ice cold washing buffer and resuspended in 200 ul of 1% paraformaldehyde. The samples were analyzed on a Becton-Dickinson FACScan instrument. Results of the assay are given below in Table 5 as percent positive COS cell transfectants, wherein MOPC 21 (IgG1) and UPC 10 (IgG2a) are isotype matched controls, 18E3D is an ICAM-1 specific monoclonal antibody and ICR-1.1 to ICR-9.2 are ICAM-R specific monoclonal antibodies. The reactivities of monoclonal antibodies ICR-1.1 through ICR-9.2 were assayed in a different experiment than monoclonal antibodies ICR-12.1 through ICR-17.1.

[4] = biological target: T2, Protein 1 (ICAM-R domain 1 fused to ICAM-1) (Homo sapiens, UniProt P05362+P32942, A175T/A179V/A227S/A249V/A265P/D143G/D183H/D240V/E159K/E168G/E234D/F135L/F230V/G202E/M196L/M262R/P127S/P187N/P238T/Q133K/Q164E/Q197R/R211Y/R214Q/R224Q/S145A/S149N/S162K/S180R/S236Q/T148A/T242S/V205E/V220A/W157G/W237G/Y255H); assay: FACS binding to COS cell transfectants; settings: for percent positive COS cell transfectants, Protein 1: antibody 5.0 ug/ml
T2 construct: immunoglobulin-like domain of ICAM-R (residues 1 to 93) fused to ICAM-1 (residue 117 to 532); ICAM-1 residue 117 to 532 (fusion partner in the same polypeptide); expressed in transfected cells; host or cells: COS cells, plasmid pcDNA1Amp.RD1.ID2-5
Text: as §2, §3

T2 sequence (P32942+P05362 fused with the stated changes): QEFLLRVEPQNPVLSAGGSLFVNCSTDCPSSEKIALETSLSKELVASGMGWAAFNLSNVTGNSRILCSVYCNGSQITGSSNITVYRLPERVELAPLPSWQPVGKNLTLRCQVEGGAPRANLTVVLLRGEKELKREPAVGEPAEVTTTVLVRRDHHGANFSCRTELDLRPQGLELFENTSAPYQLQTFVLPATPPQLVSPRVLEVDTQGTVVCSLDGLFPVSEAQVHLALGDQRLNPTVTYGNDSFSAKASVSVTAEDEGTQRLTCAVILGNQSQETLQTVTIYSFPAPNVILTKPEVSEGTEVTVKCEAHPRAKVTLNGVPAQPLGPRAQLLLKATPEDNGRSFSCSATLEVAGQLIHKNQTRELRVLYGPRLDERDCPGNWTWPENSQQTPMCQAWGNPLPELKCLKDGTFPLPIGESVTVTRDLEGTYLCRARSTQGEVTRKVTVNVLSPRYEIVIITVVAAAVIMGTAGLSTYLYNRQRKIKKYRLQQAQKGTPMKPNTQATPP
T1 sequence (P32942+P05362 fused with the stated changes): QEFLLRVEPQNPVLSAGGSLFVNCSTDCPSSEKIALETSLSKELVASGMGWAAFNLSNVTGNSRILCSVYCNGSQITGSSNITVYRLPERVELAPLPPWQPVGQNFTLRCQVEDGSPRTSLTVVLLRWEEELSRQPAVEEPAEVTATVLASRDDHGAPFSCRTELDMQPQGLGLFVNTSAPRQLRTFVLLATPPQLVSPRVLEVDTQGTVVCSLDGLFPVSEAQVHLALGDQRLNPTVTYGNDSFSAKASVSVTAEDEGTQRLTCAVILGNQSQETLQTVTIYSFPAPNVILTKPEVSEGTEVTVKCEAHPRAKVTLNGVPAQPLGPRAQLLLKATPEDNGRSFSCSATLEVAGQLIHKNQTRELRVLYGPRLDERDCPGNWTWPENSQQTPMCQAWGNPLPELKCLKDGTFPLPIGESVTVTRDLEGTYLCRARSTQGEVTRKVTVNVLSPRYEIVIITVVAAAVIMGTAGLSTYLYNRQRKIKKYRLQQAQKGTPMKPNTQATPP

Row | Molecule | release of MCP-1 into conditioned medium (Monocytes [1]) | MCP-1 release at 18 hours relative to the peak ICR-1.1 induction level (Monocytes [1]; not detected until 18 hours) [fold] | IL-8 release relative to the BSA control (U937 cells) | IL-8 level at 18 hours over the level at the 8 hour time point (Monocytes [2]) | Blockade of Lymphocyte Activation SEA (human PBL) | proliferation in response to SEA, plate-bound antibody (human PBL) | percent positive COS cell transfectants, Protein 2 [3] [%] | recognition of hybrid with only ICAM-R domain 1 (domain 1 specific) [4] | percent positive COS cell transfectants, Protein 1 [4] [%] | time of peak MCP-1 release (Monocytes [1]) [h] | IL-8 release relative to ICR-4.2, 6.2 or 8.1 treated wells (U937 cells) [fold] | IC50 (human PBL; from logistic dose response curves, proliferation versus control antibodies) [µg/mL]
1 | B1 | induced release of MCP-1 | 4 | twice | two times | YES | significantly inhibited proliferation | 64.25 | recognize the hybrid molecule | 57.34 |  |  | 
2 | B2 | induced release of MCP-1 |  |  | ten times | YES | significantly inhibited proliferation | 68.32 | recognize the hybrid molecule | 60.27 | 8 | 3 | 63
